PMC13598120

Molecular target: GNL3, endogenous (UniProt Q9BVP2)
Test: PLA (α-Flag + α-GNL3)
Conditions: U2OS cells, 2 h, read off a plot

Chain of GNL3, endogenous (Q9BVP2 whole entry): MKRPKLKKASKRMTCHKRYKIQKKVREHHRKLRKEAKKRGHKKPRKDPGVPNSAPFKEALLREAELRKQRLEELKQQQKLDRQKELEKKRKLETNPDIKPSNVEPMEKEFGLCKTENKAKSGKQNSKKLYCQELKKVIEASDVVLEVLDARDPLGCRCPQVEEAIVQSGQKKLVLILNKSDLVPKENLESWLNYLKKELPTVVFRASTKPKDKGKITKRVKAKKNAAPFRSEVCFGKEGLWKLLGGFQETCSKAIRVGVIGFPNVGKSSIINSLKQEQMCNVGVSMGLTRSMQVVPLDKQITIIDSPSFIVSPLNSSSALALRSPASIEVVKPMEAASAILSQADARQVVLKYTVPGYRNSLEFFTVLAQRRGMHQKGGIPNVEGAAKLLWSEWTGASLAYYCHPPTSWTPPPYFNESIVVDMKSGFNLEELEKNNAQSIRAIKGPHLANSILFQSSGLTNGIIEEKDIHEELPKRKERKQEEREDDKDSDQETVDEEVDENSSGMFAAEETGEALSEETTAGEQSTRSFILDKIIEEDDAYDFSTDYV

response (PLA dots per cell) (20 μM ETO, parent: est. 54): 28 | response (PLA dots per cell) (DMSO (control), parent: est. 16): 11
Substance: Flag-BLM, wild type (from UniProt P54132) SIMdm (both SIMs, 217QIDL220 and 235VICI238, mutated; substitutions not printed)
